Experimental findings from PMC9701752 are described below.

B1: PTPRJ transmembrane domain construct for the AraTM assay, wild type (five extracellular residues, putative TMD, 20 cytoplasmic juxtamembrane residues) [human] / FLT3 transmembrane domain construct for the AraTM assay (five … (parent)
chain 1: QDPGVICGAVFGCIFGALVIVTVGGFIFWRKKRKDAKNNEVSFSQIKP
chain 2: QDNISFYATIGVCLLFIVVLTLLICHKYKKQFRYESQLQMVQVTG

The variants in the test derive from B1. Kind of test: DN-AraTM assay. The note with it: with FLT3 transmembrane domain construct for the AraTM assay (five extracellular residues, putative TMD, 20 cytoplasmic juxtamembrane residues); FLT3-AraC co-expressed with PTPRJ TMD-AraC* competitor; n=9; parent: 0.8; read off a plot.
In the case of chain 1 G16L, the response (normalized GFP signal (FLT3 alone = 1)) amounted to 0.55.

For chain 1 G12L, the response (normalized GFP signal (FLT3 alone = 1)) amounted to 0.56.

On to chain 1 G8L, for which the response (normalized GFP signal (FLT3 alone = 1)) is 0.5.
